The target in this assay is T1, GST-tagged SH3 domain of Bin1.
T1 chain: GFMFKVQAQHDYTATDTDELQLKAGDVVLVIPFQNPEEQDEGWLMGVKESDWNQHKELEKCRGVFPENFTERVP
Put plainly: GST pulldown. The conditions noted are these: parent: 1.0, read off a plot.

The mark [1] stands for this setting: chain shown with the change, 12 µg GST-Bin-SH3, 6 µg purified Dyn2.

B1: dynamin-2 (human Dyn2 isoform 1), wild type, P50570 S848A (protein)
chain: MGNRGMEELIPLVNKLQDAFSSIGQSCHLDLPQIAVVGGQSAGKSSVLENFVGRDFLPRGSGIVTRRPLILQLIFSKTEHAEFLHCKSKKFTDFDEVRQEIEAETDRVTGTNKGISPVPINLRVYSPHVLNLTLIDLPGITKVPVGDQPPDIEYQIKDMILQFISRESSLILAVTPANMDLANSDALKLAKEVDPQGLRTIGVITKLDLMDEGTDARDVLENKLLPLRRGYIGVVNRSQKDIEGKKDIRAALAAERKFFLSHPAYRHMADRMGTPHLQKTLNQQLTNHIRESLPALRSKLQSQLLSLEKEVEEYKNFRPDDPTRKTKALLQMVQQFGVDFEKRIEGSGDQVDTLELSGGARINRIFHERFPFELVKMEFDEKDLRREISYAIKNIHGVRTGLFTPDLAFEAIVKKQVVKLKEPCLKCVDLVIQELINTVRQCTSKLSSYPRLREETERIVTTYIREREGRTKDQILLLIDIEQSYINTNHEDFIGFANAQQRSTQLNKKRAIPNQGEILVIRRGWLTINNISLMKGGSKEYWFVLTAESLSWYKDEEEKEKKYMLPLDNLKIRDVEKGFMSNKHVFAIFNTEQRNVYKDLRQIELACDSQEDVDSWKASFLRAGVYPEKDQAENEDGAQENTFSMDPQLERQVETIRNLVDSYVAIINKSIRDLMPKTIMHLMINNTKAFIHHELLAYLYSSADQSSLMEESADQAQRRDDMLRMYHALKEALNIIGDISTSTVSTPVPPPVDDTWLQSASSHSPTPQRRPVSSIHPPGRPPAVRGPTPGPPLIPVPVGAAASFSAPPIPSRPGPQSVFANSDLFPAPPQIPSRPVRIPPGIPPGVPARRPPAAPSRPTIIRPAEPSLLD
For the molecule B1, the ratio to parent came to 0.86 under setting [1] and 1.2 (chain shown with the change;).

B2: dynamin-2 (human Dyn2 isoform 1), wild type, P50570 S856E (protein)
chain: MGNRGMEELIPLVNKLQDAFSSIGQSCHLDLPQIAVVGGQSAGKSSVLENFVGRDFLPRGSGIVTRRPLILQLIFSKTEHAEFLHCKSKKFTDFDEVRQEIEAETDRVTGTNKGISPVPINLRVYSPHVLNLTLIDLPGITKVPVGDQPPDIEYQIKDMILQFISRESSLILAVTPANMDLANSDALKLAKEVDPQGLRTIGVITKLDLMDEGTDARDVLENKLLPLRRGYIGVVNRSQKDIEGKKDIRAALAAERKFFLSHPAYRHMADRMGTPHLQKTLNQQLTNHIRESLPALRSKLQSQLLSLEKEVEEYKNFRPDDPTRKTKALLQMVQQFGVDFEKRIEGSGDQVDTLELSGGARINRIFHERFPFELVKMEFDEKDLRREISYAIKNIHGVRTGLFTPDLAFEAIVKKQVVKLKEPCLKCVDLVIQELINTVRQCTSKLSSYPRLREETERIVTTYIREREGRTKDQILLLIDIEQSYINTNHEDFIGFANAQQRSTQLNKKRAIPNQGEILVIRRGWLTINNISLMKGGSKEYWFVLTAESLSWYKDEEEKEKKYMLPLDNLKIRDVEKGFMSNKHVFAIFNTEQRNVYKDLRQIELACDSQEDVDSWKASFLRAGVYPEKDQAENEDGAQENTFSMDPQLERQVETIRNLVDSYVAIINKSIRDLMPKTIMHLMINNTKAFIHHELLAYLYSSADQSSLMEESADQAQRRDDMLRMYHALKEALNIIGDISTSTVSTPVPPPVDDTWLQSASSHSPTPQRRPVSSIHPPGRPPAVRGPTPGPPLIPVPVGAAASFSAPPIPSRPGPQSVFANSDLFPAPPQIPSRPVRIPPGIPPGVPSRRPPAAPERPTIIRPAEPSLLD
In the case of B2, for the setting “chain shown with the change;”, the ratio to parent turned out to be 1.

B3: dynamin-2 (human Dyn2 isoform 1), wild type, P50570 S848E (protein)
chain: MGNRGMEELIPLVNKLQDAFSSIGQSCHLDLPQIAVVGGQSAGKSSVLENFVGRDFLPRGSGIVTRRPLILQLIFSKTEHAEFLHCKSKKFTDFDEVRQEIEAETDRVTGTNKGISPVPINLRVYSPHVLNLTLIDLPGITKVPVGDQPPDIEYQIKDMILQFISRESSLILAVTPANMDLANSDALKLAKEVDPQGLRTIGVITKLDLMDEGTDARDVLENKLLPLRRGYIGVVNRSQKDIEGKKDIRAALAAERKFFLSHPAYRHMADRMGTPHLQKTLNQQLTNHIRESLPALRSKLQSQLLSLEKEVEEYKNFRPDDPTRKTKALLQMVQQFGVDFEKRIEGSGDQVDTLELSGGARINRIFHERFPFELVKMEFDEKDLRREISYAIKNIHGVRTGLFTPDLAFEAIVKKQVVKLKEPCLKCVDLVIQELINTVRQCTSKLSSYPRLREETERIVTTYIREREGRTKDQILLLIDIEQSYINTNHEDFIGFANAQQRSTQLNKKRAIPNQGEILVIRRGWLTINNISLMKGGSKEYWFVLTAESLSWYKDEEEKEKKYMLPLDNLKIRDVEKGFMSNKHVFAIFNTEQRNVYKDLRQIELACDSQEDVDSWKASFLRAGVYPEKDQAENEDGAQENTFSMDPQLERQVETIRNLVDSYVAIINKSIRDLMPKTIMHLMINNTKAFIHHELLAYLYSSADQSSLMEESADQAQRRDDMLRMYHALKEALNIIGDISTSTVSTPVPPPVDDTWLQSASSHSPTPQRRPVSSIHPPGRPPAVRGPTPGPPLIPVPVGAAASFSAPPIPSRPGPQSVFANSDLFPAPPQIPSRPVRIPPGIPPGVPERRPPAAPSRPTIIRPAEPSLLD
Regarding B3, the ratio to parent is, setting by setting: under setting [1], 0.42; (chain shown with the change;) 0.66.

B4: dynamin-2 (human Dyn2 isoform 1), wild type, P50570 S856A (protein)
chain: MGNRGMEELIPLVNKLQDAFSSIGQSCHLDLPQIAVVGGQSAGKSSVLENFVGRDFLPRGSGIVTRRPLILQLIFSKTEHAEFLHCKSKKFTDFDEVRQEIEAETDRVTGTNKGISPVPINLRVYSPHVLNLTLIDLPGITKVPVGDQPPDIEYQIKDMILQFISRESSLILAVTPANMDLANSDALKLAKEVDPQGLRTIGVITKLDLMDEGTDARDVLENKLLPLRRGYIGVVNRSQKDIEGKKDIRAALAAERKFFLSHPAYRHMADRMGTPHLQKTLNQQLTNHIRESLPALRSKLQSQLLSLEKEVEEYKNFRPDDPTRKTKALLQMVQQFGVDFEKRIEGSGDQVDTLELSGGARINRIFHERFPFELVKMEFDEKDLRREISYAIKNIHGVRTGLFTPDLAFEAIVKKQVVKLKEPCLKCVDLVIQELINTVRQCTSKLSSYPRLREETERIVTTYIREREGRTKDQILLLIDIEQSYINTNHEDFIGFANAQQRSTQLNKKRAIPNQGEILVIRRGWLTINNISLMKGGSKEYWFVLTAESLSWYKDEEEKEKKYMLPLDNLKIRDVEKGFMSNKHVFAIFNTEQRNVYKDLRQIELACDSQEDVDSWKASFLRAGVYPEKDQAENEDGAQENTFSMDPQLERQVETIRNLVDSYVAIINKSIRDLMPKTIMHLMINNTKAFIHHELLAYLYSSADQSSLMEESADQAQRRDDMLRMYHALKEALNIIGDISTSTVSTPVPPPVDDTWLQSASSHSPTPQRRPVSSIHPPGRPPAVRGPTPGPPLIPVPVGAAASFSAPPIPSRPGPQSVFANSDLFPAPPQIPSRPVRIPPGIPPGVPSRRPPAAPARPTIIRPAEPSLLD
As for B4, the ratio to parent (chain shown with the change;) turned out to be 1.1.

The values above are taken from publication PMC9712776.
